Test: soluble on expression in E. coli; label from the status in PepcDB or PDB records

Sequence	soluble on expression in E. coli
MQSDHKEKIAILVDVQNVYYTCREAYRSNFDYNQFWYVATQEKEVVSAKAYAIASNDPKQRQFHHILRGVGFEVMLKPYIQRRDGSAKGDWDVGITLDAIEIAPDVDRVILVSGDGDFSLLVERIQQRYNKKVTVYGVPRLTSQTLIDCADNFVAIDDDFLL	soluble
SVACLSCRKRHIKCPGGNPCQKCVTSNAICEYLEPSKKIVVSTKYLQQLQKDLNDKTEENNRLKALLLER	soluble
FNKKEVLDLTSPKNSIRSRNKLRRTLRNIQERIEDELNHEREALIQDFDYRLAVTYDQMLKDSNIPFSVKDVMAFIEKHTGVRFG	soluble
MIDMFHINIPFKKDVIIEMGDCGFVDFAKLAEKTELKIACGNVEFSVVNDQKKVRTDDLYHPWSTIPSSYTDIACKVFDAEPRANVFWGYLQLKASPAKVMQGHNVYGSEDFRLCVEYLLDSLQKAQPELWELLDVGLAEMTRIDCTYSIKCANPDILRQTIKQMGNVSNRYIKPARNSDFETTLYFNRATKANPGAGRSFELCIYTKHDEIAHQLADLKRRARQGDSDRFNRIIDELSKPELQAFAANRLRFEGRAKKRFIQKHVGSANLWQVIRHAEQFEAKNGYRFCEWMFKTLFHDLLESLKGEELELYNDSKIKQLLRDAYSTMTPKGNISYAKADRLFRFYMTLCDRGYQELKAHSSKATLHRNMRDLMAIGFSKADLQNLSEGERMPLAQVLNFNFDNQRPANYVEPVSPTALEHHHHHH	not soluble
MQNDAGQTVELYVPRKCSSSNRIIGPKDHASVQIDFVDVDPETGRMIPGKSTRYAICGAIRRMGESDDAILRLAQKDGLVPRDDVKSN	not soluble
MGSDKIHHHHHHMSFFDTLSGLSREQLRMALYSTTPAQVETAIEGEQGNLGHLLALLSPAAEEYLEPMAQRAAALTRQRFGHNIGLYLPLYLSNLCANECDYCGFTMSNKLKRKVLSHDELAAEMAVIKPQGFDSILLVSGEHETKVGIEYFADILPLVKAEFSHVAMEVQPLSREHYEILVEKGLDAVMLYQETYDPETYRRHHLRGNKQDYGYRLASPERIAQAGVDKIGLGVLLGLDDWRMDALLMGYHLDYLERRFWRSRYSISLPRLRPCVGGITPKVQLTDKGLVQLICAFRLFNEQLEISLSTRETPSLRDNLLGLGITQMSAGSRTEPGGYVNPAAQLDQFEISDERSAAEVASVLRSRGFTPVWKDWEAGWIGAG	not soluble
GPGSMNGEFPVLVSHHKLLMLPTVGVARYDSGNAGIIGEQTHNFHVIPEIELIVVRVHGKMTEYQHNHLLLTSVLQLHAKPLHLFLTNASINIQHIFAMTITMLHAIRFCPSGSTGPCCKHRQIRPIEHNEKEHAALTYLKTIVTGWHPQQTINMIMVLFAQPQEIVVPQ	not soluble
MGGLFTGIALDSAGHDVTIAEQSAGDLRSRGGGIVAQQSIRQFLSRHDIVDPANITTRASERRFLTADGDVRTSTPDSMVFTSWDAVYRQLRAAFPDDRYHTGQTVTGVRATDGTVTFSDGDRTTADLVVAADGGQSTARAQLFPDADPEFADYVAWRGVVSEAELSDAVIDAFDGRFTFYQGEQMLILAYFIPGEDGNTAPGDRRLNWVWYDTLSGRERETIFTDTTGTSQQFSVSPGQLRDPVESHQRERAAETLPPVFTDLVATTAAPFVQAIYDLQSPQMTVDRVCLVGDAAFVARPHTAAGTSKAASDAVELKAALDRHSSLGGALASWDDARTDYGARLVAQGKRMGDERLSLGSLEHHHHHH	not soluble
MGPHFTLLLAALANCLCPGRPCIKCDQFVTDALKTFENTYLNDHLPHDIHKNVMRMVNHEVSSFGVVTSAEDSYLGAVDENTLEQATWSFLKDLKRITDSDLKGELFIKELLWMLRHQKDIFNNLARQFQKEVLCPNKCGVMSQTLIWCLKCEKQLHICRK	not soluble
MSLASLCDLVGLPRSSFYRQSVFKVLEDQECETELRHQMQLICLEMPGYSYRRITAELHRRGWPVNHKRVLRLMRQDNLLCLRRKAFVRTTDSEHGFRVYPNLATNLMPSGLNQLWISDITYIRLQEEFVYLAIILDRYSRRVIGWSLSRHIDMELSLSALRMALSNREVLPGLIHHSDRGVQYASKAYIELLEEHKIAISMSRRGNPYDNAFAESFMKTLKYEEVLLNEYGDYREAQGNIARFIEEVYNRKRLHSSIGYLPPVEFEARVEHEISPASHPTEGHHHHHH	soluble
MTTLKLDTLSDRIKAHKNALVHIVKPPVCTERAQHYTEMYQQHLDKPIPVRRALALAHHLANRTIWIKHDELIIGNQASEVRAAPIFPEYTVSWIEKEIDDLADRPGAGFAVSEENKRVLHEVCPWWRGQTVQDRCYGMFTDEQKGLLATGIIKAEGNMTSGDAHLAVNFPLLLEKGLDGLREEVAERRSRINLTVLEDLHGEQFLKAIDIVLVAVSEHIERFAALAREMAATETRESRRDELLAMAENCDLIAHQPPQTFWQALQLCYFIQLILQIESNGHSVSFGRMDQYLYPYYRRDVELNQTLDREHAIEMLHSCWLKLLEVNKIRSGSHSKASAGSPLYQNVTIGGQNLVDGQPMDAVNPLSYAILESCGRLRSTQPNLSVRYHAGMSNDFLDACVQVIRCGFGMPAFNNDEIVIPEFIKLGIEPQDAYDYAAIGCIETAVGGKWGYRCTGMSFINFARVMLAALEGGHDATSGKVFLPQEKALSAGNFNNFDEVMDAWDTQIRYYTRKSIEIEYVVDTMLEENVHDILCSALVDDCIERAKSIKQGGAKYDWVSGLQVGIANLGNSLAAVKKLVFEQGAIGQQQLAAALADDFDGLTHEQLRQRLINGAPKYGNDDDTVDTLLARAYQTYIDELKQYHNPRYGRGPVGGNYYAGTSSISANVPFGAQTMATPDGRKAHTPLAEGASPASGTDHLGPTAVIGSVGKLPTAAILGGVLLNQKLNPATLENESDKQKLMILLRTFFEVHKGWHIQYNIVSRETLLDAKKHPDQYRDLVVRVAGYSAFFTALSPDAQDDIIARTEHML	soluble
DAPLPHLRFALASCANWEAGFFAAYGDIARRADAGELEMLIFLGDYIYEYATGMFAGKDGVVRPHQPLHETITLEHYRTRYGHYRSDNHLQAAHAALPWIVMWDDHESANNSNREGAQNHSADEGSWVDRQNAARQVFLEWMPIRQEDTLYRSFTFGDLATLSLLDLRSFRDPAPSQQQWLEGQRADTMMGSQQFEWLKSNVEHTTTTWNIIGSSVMFAPMAITGQPLFQIPEPIPANLDQWDGYSRERDRLLAVLADFATPTLFLSGDIH	not soluble
MGSDKIHHHHHHMITPTIRGGHEVNYLVAVEGAKVGDAIAIRVERIRVLSKAASSGVDSPREGSFVGDPYVAKKCPVCNEPWPEFEVVGIGEDAIRCKKCGAPVSPFRMINGYTMVFDHEGGVGVTVDKKTAEMIAKNAWEWHALPKNSKQVPILIFAKADIVGVPSRIRPFLGQLGTIPAVDIPDSHNAGDFGYFLINAPHPYAISKEDYETKLTDGHLDVDSVREGAIVIAPVKVEGGGVYAGDAHAMEGDGEVAGHTTDVTAETTVTVEVIKGLNLEGPILLPPEEDLPPLAKPWRKDEWEKVERLAKKFGIEVEPVAPLQIIGSGPTINDAALNGFKRAAKLFGMSVEEVKNRVTITGAVEIGRLPGIVQVSMQVPLRILEKLGIYELVVKHYNLPF	not soluble
SNAMKLTPNFYRDRVCLNVLAGSKDNAREIYDAAEGHVLVGVLSKNYPDVASAVVDMRDYAKLIDNALSVGLGAGDPNQSAMVSEISRQVQPQHVNQVFTGVATSRALLGQNETVVNGLVSPTGTPGMVKISTGPLSSGAADGIVPLETAIALLKDMGGSSIKYFPMGGLKHRAEFEAVAKACAAHDFWLEPTGGIDLENYSEILKIALDAGVSKIIPHIYSSIIDKASGNTRPADVRQLLEMTKQLVK	soluble
MGSDKIHHHHHHMEMEFNENNIDLETIIRDEVNKYLSRDIGDLPATQQAPLELREKYEKMEVPNKGRDIYEVLKDLNNEVLNYLYRPNHPRSFSFIPGPASRLSWLGDILTTANNIHASNFANATLPINIERNLINYLVGKIGYEIKPAGGVFVSGGSMANLTAIVAARDAQVEMEDIKKATVYLTSQTHHSVGKALHVAGFLKNNIRRIEYNDDFTMNTDSLKAAIDKDIEEGYKPAMVIATAGTTNTGSVDDFTTLGDICDHYNLWLHVDGAYGLSHILSDKAQHLFKGIERSDSASWDAHKLLFQTYSCAMVIVKEKNHLLQSFGEDAEYLDDIASDDDVIDPEMLGIELTRPARALKLWITLQVIGEDEIIERIKYGEGLAEYAEEYVSSLDNWRIISHANLSIVNFRYENSDLTEAQNNQLNSMAAQKIADSGYAIAYTTVLNNQRVIRLCTTNPLTTHDDIRETINRLDQYIGDYDMKDA	not soluble
MENLKIRYIDTRKIGTVSGVKVPVKKGYKIVVEDEEKGEDIVEVLGYSREESKNGIQPRFVRVANKRDLEIFKKNMRESERAFEICKEKIKEHGLDMHLLKAYIPLNRKKVFFYYLAEERVDFRNLVRDLAKIFKRRIEMRQIGVRDAVQMKGWIGRCMRETCCSQFMENFQSISLRDITEQNLPLSPSKFTGPCGRLVCCMAFERENYLLKILFPEPGTKLCYNKQEVTLLEVDPLRETVVLQYDELGKKVELGVRDMLPKGYEKALEHCRSCQFCCRRVYEEATEHEIVKSSAELEHHHHHH	not soluble
MNQEKIADLKNWMHQEKIDFTYISDPGHIAYFSGYESEPHERVLALFIAADDQSFLFTPALEVEDAEKSSWTYPVYGYLDSENPWEKIAALLNKRTQGTPRFALEKQALSLARFDQLKTYFPASDFSHDVTPLIEKLQLIKTEPEIQRLLEAGSWADVAFEIGFKAIQAGVAEQEIVAEIEYQLKRQGIRSMSFDTLVLTGKNGASPHGVPGETKIEPHDLVLFDLGVVHNGYCSDATRTVSYLEPSDFQKEIYGIVLEAQLAATEAVKPGVTAGELDDIARGVITKAGYGEYFNHRLGHGIGTTVHEYPSLVHGNDLVIEEGMCFSIEPGIYIPGKVGVRIEDCLHVTKTGSEPFTKTTKELQIIQ	not soluble
MFDPKQFDELANKLFATLPTSLQNFEKDIQQKFKEVLQSTFSRMDLVTREEFDVQCKVLARTREKLEQLQHQLEDFIKRQEVKNNK	not soluble
MGSDKIHHHHHHMEKAERLTGTPDYAVLPGRILDKTLAGRGLQKAEFAERCGHSAKMISEIIAGKAPIMPETALEFERVLGMPASYWLTLESLYRLRLAEQRDRQRLSDQRDWAKRFPIAAMVRLGWIDKPSDRVDEVAKLLAFFGVASVEAWQAMTASAAEQIAYRRSPSFQSAPESVSAWLRRGEMVAGARPCGPFDEAGFRRVLKSVRELTREAPEVFQPSLIERCACVGVAVVFTPELPKTCLSGATRWLSKDKALIQLSLRHKTDDHLWFTFFHEAGHVLLHPKKLILEEKLKKGEAPTPESAQREREANVFAATTLIPRSAWMAFTAAGDFSAPRIRAFAKEHSLSPGIIVGQLQHDSHLSYATTLNSLKTTFRWPAESAVSHPSV	not soluble
MAHHHHHHMLKSSIVLLRRGKPRPRAGMFPEKYRRVPTLLKPQQGGQQYFNEFLIRSANDALEAQQQGYGSAFRVGGSGAARILADGNATAADGIHDGEISSVHPRLPQADIDGVLQRSRAETIQAELKQLVAQDGFISQRGFNERLWYEQEHHRLRTHGDGVEASPSEVAATAAASSSTAEAVSATGEGRAVPERILGDDYFQSKFGYSLLKGRSPDASAVADNVKAYAQLDLWGEMPMYSRDFVFLYLVSRRRNTYAVAYDYDGKRLLPTYTAGNRGLKGGDRGFRGDGSTDNGHQVTSMYLNDLLPKIREARAASGRPLGRGEKIDLVVRVMGFYNGRQGAVRAVQDRSADFRVRYLEDVTPFPLNGPKMPRGVFR	not soluble

Source: the DeepSol protein solubility set
